Where a chain is given by its changes, count along the chain named.
B1: 136C5 (antibody, V domains shown)
VH: EVQLVESGGGLVQPGGSLRLSCAASGFTFSSYSMNWVRQAPGKGLEWVSYISTGSSTIYYADSVKGRFTISRDNAKNSLYLQMNSLRDEDTAVYYCARENYYGSGSYEDYFDYWGQGTLVTVSS
VL: EIVLTQSPATLSLSPGERATLSCRASQSVSSYLAWYQQKPGQAPRLLIYDASNRATGIPARFSGSGSGTDFTLTISSLEPEDFAVYYCQQRSNWPIFTFGPGTKVDIK
notes: Hybridoma antibody, human IgG1, kappa light chain; also called human anti-human IL-10Rα monoclonal antibody 136C5; hybridoma deposit PTA-9131
B2: 136C8 (antibody, V domains shown)
VH: B1 VH with G54R
VL: B1 VL
notes: Hybridoma antibody, human IgG2, kappa light chain; also called human anti-human IL-10Rα monoclonal antibody 136C8; hybridoma deposit PTA-9132

How the values were obtained:
[1] = target: T1, cynomolgus macaque IL-10Rα extracellular domain fused to the Fc portion of human IgG1 (cynomolgus macaque); assay: ELISA, coated cynomolgus IL-10Rα:hFc
T1 construct: The entry includes the signal peptide; also called cynomolgus IL-10Rα:hFc; cyIL-10Rα
Text: Titration of anti-IL-10Rα antibodies binding to coated chimp or cynomolgus IL-10Rα:hFc. Binding was detected with anti-human kappa-HRP, anti-mouse IgG-HRP, or anti-rat IgG-HRP. Different anti-rat-IgG HRP and anti-mouse IgG antibodies were used to generate the data in panels A and B. The nature of these secondary antibodies can affect the results and lead to different maximum binding (BMAX). The BMAX from these studies are described in Table 5.
IL-10Rα Specific Antibody Detection ELISA: Antibody titers, specificity, and production by hybridomas were determined by ELISA. In brief, 96 well flat bottom Maxisorb plates were coated with 50 μl of hIL-10Rα (R&D Systems, Minneapolis, Minn.) at 1 μg/ml in carbonate buffer (pH 9.4) overnight at 4° C. or at 37° C. for 1 hour. After washing three times with PBS/0.05% Tween 20, plates were blocked with Superblock blocking buffer in TBS (Pierce) at room temperature for 30 minutes. The serum, supernatant, or purified antibody was diluted in blocking buffer, added to the wells, and the plates were incubated for 1 hour at room temperature. The plates were washed 3 times with PBS/0.05% Tween 20 and peroxidase-conjugated goat anti-human IgG (Fcγ specific), anti-rat IgG, or anti-mouse IgG detection antibodies (Jackson Immunoresearch) were added at a dilution of 1:5000. Multiple lots of anti-rat and anti-mouse IgG antibodies were used in different assays. […] Following a 1 hour incubation at room temperature, the plates were washed and the TMB (Sigma) substrate was added and incubated at room temperature for 5 to 10 minutes. The reaction was stopped with H₂SO₄ (LabChem) and the optical density was measured at 450 nm by a microplate reader. A second ELISA protocol using soluble human, chimp and cynomolgus IL-10Rα:hFc recombinant proteins as the coating antigens was also employed. In this assay, binding of specific human IgG were detected with a peroxidase labeled sheep anti-human kappa antibody (The Binding Site, Birmingham, UK).

[2] = target: T2, human IL-10Rα on cells (human, UniProt Q13651 22-578); assay: flow cytometry on RPMI-8226 cells; detection anti-human IgG-PE [B]
T2 construct: Full-length entry with signal peptide; endogenous on PBMC and RPMI-8226 cells, transfected in EL-4 and CHO-K1 cells; also called IL-10R on RPMI-8226 cells; IL-10Rα on human PBMC, lymphocytes and monocytes
T2 sequence: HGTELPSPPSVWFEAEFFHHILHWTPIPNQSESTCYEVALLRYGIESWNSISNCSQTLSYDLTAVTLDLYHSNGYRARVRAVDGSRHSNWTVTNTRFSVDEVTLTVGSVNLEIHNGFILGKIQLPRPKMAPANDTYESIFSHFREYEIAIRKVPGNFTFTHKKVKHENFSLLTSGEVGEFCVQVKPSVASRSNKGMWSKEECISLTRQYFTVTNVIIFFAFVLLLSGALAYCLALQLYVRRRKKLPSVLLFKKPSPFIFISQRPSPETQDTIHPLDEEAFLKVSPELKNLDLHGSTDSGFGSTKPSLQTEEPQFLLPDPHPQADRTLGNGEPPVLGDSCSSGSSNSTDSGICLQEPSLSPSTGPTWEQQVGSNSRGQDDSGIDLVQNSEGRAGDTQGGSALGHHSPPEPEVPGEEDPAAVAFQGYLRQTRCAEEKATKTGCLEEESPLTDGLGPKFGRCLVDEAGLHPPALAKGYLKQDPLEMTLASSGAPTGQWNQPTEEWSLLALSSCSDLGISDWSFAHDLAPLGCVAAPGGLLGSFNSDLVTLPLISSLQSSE
Text: A) Titration of anti-IL-10Rα antibodies binding to coated human IL-10Rα:hFc. Binding was detected with anti-human kappa-HRP, anti-mouse IgG-HRP, or anti-rat IgG-HRP. […] RPMI-8226 cells were labeled with anti-human IL-10Rα antibodies at various concentrations and detected with anti-human IgG-PE. The commercial rat anti-human IL-10Rα antibody 3F9 was detected with anti-rat IgG-PE. The geometric mean fluorescence intensity (geo mean) data are shown.
The cells were washed once in staining buffer: PBS+2% FBS+0.01% NaN₃+10 mM EDTA, then blocked with 20 μg/ml rabbit IgG (Jackson Immunoresearch), resuspended in serum, supernatant, purified anti-human IL-10Rα antibodies, or isotype control antibodies in a final volume of 50 μl. The cells were incubated with the antibodies on ice for 20 minutes, washed twice in staining buffer then resuspended in an anti-human IgG secondary antibody for 20 minutes. […] If the biotinylated antibody was used, antibody binding was detected by labeling with streptavidin-phycoerythrin (SA-PE) for 20 minutes. Binding of rat and mouse anti-hIL-10Rα antibodies were detected with either biotinylated or PE conjugated anti-rat or anti-mouse IgG antibodies from multiple sources (Jackson Immunoresearch; Southern Biotech Associates; and BD Pharmingen, San Diego, Calif.). […]

[3] = target: T2, human IL-10Rα on cells; assay: flow cytometry, RPMI-8226 cells pre-incubated with biotinylated human IL-10 (competitor)
Method: IL-10 Blocking Assay: To determine if the anti-human IL-10Rα antibodies were blocked by binding of IL-10 to the receptor on the cell surface, a flow cytometric protocol was used. In the flow cytometric assay, RPMI-8226 cells were washed and resuspended in staining buffer and then incubated with biotinylated human IL-10 or a negative control protein (R&D Systems) for 30 minutes on ice. The anti-IL-10Rα antibodies were then added to the cells for an additional 30 minutes. The cells were washed and incubated with anti-human IgG conjugated to PE (Southern Biotech Associates) for 30 minutes. After another wash, the cells were fixed with 1% paraformaldehyde and analyzed on a FACS Calibur. The fold reduction in antibody binding was determined using the geometric mean fluorescence intensity in the following formula: Fold reduction=geometric mean fluorescence intensity in the absence of IL-10/geometric mean fluorescence intensity binding in presence of IL-10.
Recombinant IL-10 binding to the IL-10R expressed by RPMI-8226 cells reduced binding of the anti-human IL-10Rα antibodies (FIG. 3A). The reduction in antibody binding was similar for all antibodies tested. […] The fold reduction in binding by IL-10 (Table 3) was determined by dividing the geo mean of the antibody binding in the absence of IL-10 by the geo mean in the presence of IL-10. […]

Row | Binder | BMAX [1] [OD] | EC50 (read off the curve) [2] [µg/mL] | Fold Reduction by IL-10 [3] [fold]
1 | B1 | 1.64 | ~0.5 | 1.88
2 | B2 | 1.66 | ~0.5 | 1.98
